# Experimental data taken from article PMC6642140, “Boosting NAD^+ with a small molecule that activates NAMPT” (Nature Communications, 2019).
# Substrate: Nc1ncnc2c1ncn2[C@@H]1O[C@H](COP(=O)(O)OP(=O)(O)OP(=O)(O)O)[C@@H](O)[C@H]1O
# Test: Km from NMN production assay with varied ATP; phosphorylates His247
# Assay type: biochemical, Homo sapiens
# Conditions: Mg2+ phosphorylation at His247
protein,measurement,value
"NAMPT (nicotinamide phosphoribosyltransferase) (Homo sapiens) (protein, recombinant, N-terminal His tag removed with thrombin) MNPAAEAEFNILLATDSYKVTHYKQYPPNTSKVYSYFECREKKTENSKLRKVKYEETVFYGLQYILNKYLKGKVVTKEKIQEAKDVYKEHFQDDVFNEKGWNYILEKYDGHLPIEIKAVPEGFVIPRGNVLFTVENTDPECYWLTNWIETILVQSWYPITVATNSREQKKILAKYLLETSGNLDGLEYKLHDFGYRGVSSQETAGIGASAHLVNFKGTDTVAGLALIKKYYGTKDPVPGYSVPAAEHSTITAWGKDHEKDAFEHIVTQFSSVPVSVVSDSYDIYNACEKIWGEDLRHLIVSRSTQAPLIIRPDSGNPLDTVLKVLEILGKKFPVTENSKGYKLLPPYLRVIQGDGVDINTLQEIVEGMKQKMWSIENIAFGSGGGLLQKLTRDLLNCSFKCSYVVTNGLGINVFKDPVADPNKRSKKGRLSLHRTPAGNFVTLEEGKGDLEEYGQDLLHTVFKNGKVTKSYSFDEIRKNAQLNIELEAAHH",Km,1730 ± 320 µM
